Among the data in a protein production outcome set (Wang et al. 2014) are protein production values, retold here.

The data set can be described thus: label from the status in PepcDB records.

Regarding “MRQPAIAAVDLGASKVTCFIMKADGVHRDNRTLTTAGVGYVQSRGVRGGAIVNLDEAAQAIAQAVERAETVAGVSVQGVSVCTAGGQLASHRVHTQVSLGARPIGDGDLSRAIASALAQVRIPGRKPIHLLPIAWSVDGQRGIRDPRAMFGRALGLELLVVSVNENIFHTLAHCVERAHLSFEGIVAAPFASALAALEEDEMDLGAVCIDMGGGSTSVAVFNNGALCHVDSLAVGGGHVTQDIARGLQTSVVGAERIKTLHGSAIASANEDREMIEAPPRGDDPGAGPVIAPRSLLKGIIQPRVEETLELLRERLKASGAPVEPGAGIVLTGGASQLAGVREVAVRVFDRPVRLGRPRRVPHLADAASGPAFCAAAGVLHRTAFGPREAVSSKALAGGVARKRPIDPNASPMAKAAAWLRDNL”, the protein production result was “failed”.

Turning to “MRQRTIVCPLIQNDGCYLLCKMADNRGVFPGQWALSGGGVEPGERIEEALRREIREELGEQLILSDITPWTFRDDIRIKTYADGRQEEIYMIYLIFDCVSANRDICINDEFQDYAWVAPAALALYDLNVATRHTLALKGLL”, the protein production result is given as “not failed”.

Regarding “MRQWIAVFALVGSVAAQAGVADQAAAVSALKEGKLAMDVRSQTDYEAGTVLNAVRVDERRLVNQMKQVLSDRNAVFVIFSSTDSKADKAQEKLRAAGYFSVINGGNYEELHNALYDITDDPAE”, the protein production result is “failed”.

“MRREALKNAVLKIMTEKMELKNVTHLEETMRLNQDLYIDSVMMLQLIVYIEMDVKLCVPEDEVDPKAFLTVGSLLDFMEELQPLQDVNVNN”: the protein production entry is “failed”.

In the case of “MRRFALTVALPKGRMFREAYEVLKRAGLDLPEVEGERTLLHGKEGGVALLELRNKDVPIYVDLGIAEIGVVGKDVLLDSGRDLFEPVDLGFGACRLSLIRRPGDTGPIRRVATKYPNFTARLLKERGWAADVVELSGNIELAAVTGLADAVVDVVQTGATLRAAGLVEVEVLAHSTARLVVNRQALKLKRAVLKPLIQRLRELSGS”, the protein production entry is on record as “not failed”.

For the sequence “MRRICKVLMVIISIILGSGAPLNMAIPPLLALAAPDTSSSSTMSSSAISKVTDTNVMAVSADVTSTTDTSDTSSSDSTSATSTTTGNDTTETADTAVESGTVGTVAWTIDDAGVLTLSGGSFADLTGKRSPWYDYASSITNIKITDEITVTTASNYGYLFASLANVATVTGLNKLSMSGVTSTQSIFYRDSKLTSVDFGQTDFSTVTTMESMFEGCSVLTKVNTTNWNVSHVKSFKRTFYMCGKLTMLDVSNWDVTQVTNLDSTFSGCSSLPELDVSRWNTANVTTLASTFYSCSSVKIINASGWDTARVTDMTATFMNCTLATELNVSGWDTAKVTSMSRMFFYCENVIQLDVSGWITSQVTSLGSMFQNCSKVVTLDVGTWDTSKVTDMSFLFGGCSSLTTLNLEKWDTGSVTTLYSTFYNCSGLTSLLVDTWDTSKVTNCFWTFGGCSSLTTLNLRSWDLQSATASYGNFFNGSKKLQHLTLGPNFTFHNDKTMYLPEPSKQLPYNGTWQRNNDDPTYTSAELMTNYDGATMAGTYNWVKTSGTVLVKYVDGDGVEIADEETSSGTSGDAYQTTAKTIDGYTLHATPTNATGTYDASTITVTYVYDGNLFFNSSPTMLDFGSHTISGTTETYAPTLDKTLAVQNNGQISSTWNLTAELDSSGFVGADTGKMLLATLYYQTDDGKMTLSPGVAVQVYSQTTTDHKSVDISEHWSSNLGLLLEVPNGAAMADTYQGTISWRLNNTVANN”, the protein production entry was “failed”.

For the sequence “MRRKNLFWDDVYKGTPPWDLDHPQPAFEALIKNGEIKPGRALDIGCGRGENAIILAMNGCDVIGIDLAENAISDAKAKATERHVKVKFVVEDALQMNRLFEEGEFDVVIDSGLFHVMMDEQRRVFAQQVHRVLREGGKYFMLCFSDKEPGEYELPRRLSKAEIESTFSPVFDITYIKEAVFDSLLSPSRRKAYLLSATRSLEHHHHHH”, the protein production entry is listed as “failed”.

Take “MRRLLITILIFLLSNAGCCAPVFEIIPLGVYGGLKDGNLSAYLIKAIESKNYTALDGGTLVRGLEVAVDRQSLPSKKVDDLLQKHIPAYLISHAHLDHVMGLVMAQPELREKQTIMAREETMQALQDNIFNWSVWGNFGDSGAIPHLNFQHYQTLPLLQWLAIPDTDLHVKVFPLSHSGMASSAFLIRYKTEYALYFGDTGADRIEKSTNMENIWKEIAPLIRNKQLHAIMLECSFLNSQPDDKLFGHLKPNLFMSELRHLASIVDPFDSRNSLRGLPVVVTHIKPKLADFSNTNEDTEKQVINELSQENDIGVELIKPEQGITLSL”: the protein production entry is on record as “failed”.

In the case of “MRRLPTFGWALLVSIWAGLVGGAVIREPSVDLVPLYAVICQLLGLIAAYGTMRERSHILESVHRPGRVGMFIIILFFVMVPLTTVFALVLGDASVAGVATQWVSYLVGLGIALYVAFAGGFDRAWEKYT”, the protein production result was “failed”.

“MRRLRFSPRSSFARTLLLIVTLLFASLVTTYLVVLNFAILPSLQQFNKVLAYEVRMLMTDKLQLEDGTQLVVPPAFRREIYRELGISLYSNEAAEEAGLRWAQHYEFLSHQMAQQLGGPTEVRVEVNKSSPVVWLKTWLSPNIWVRVPLTEIHQGDFSPLFRYTLAIMLLAIGGAWLFIRIQNRPLVDLEHAALQVGKGIIPPPLREYGASEVRSVTRAFNHMAAGVKQLADDRTLLMAGVSHDLRTPLTRIRLATEMMSEQDGYLAESINKDIEECNAIIEQFIDYLRTGQEMPMEMADLNAVLGEVIAAESGYEREIETALYPGSIEVKMHPLSIKRAVANMVVNAARYGNGWIKVSSGTEPNRAWFQVEDDGPGIAPEQRKHLFQPFVRGDSARTISGTGLGLAIVQRIVDNHNGMLELGTSERGGLSIRAWLPVPVTRAQGTTKEG”: the protein production result is listed as “failed”.

As for “MRRLVLAALLAATSLTTAKAGDLLIHGGPIHTGVEAAPTAEAVLIRDDKILFVGPLAAAKAKAAKDVRAIDLKGAAAYPGFVDAHAHLTGIGLRELTLNLDQVKSVAELVAAVKAYAAAHPEGPISGRGWIETHWPEKRFPTKADLDAAAPGRIVVLGRSDGHASVASSAALAKAGITAATVPPPGGDILKGPDGQPDGMLIDHAQALVRNVIPPPNQALKREALRKAGQLYAARGWTGMANMSVMAEDLSLLRDEAAKGNFHIRIDNYMDPSGAEEVLTKGPQTDATGLIRVQGIKLYMDGALGSRGAALLEPYSDADTLGLQLTQPEQGLALMKRAKAAGAQVAMHAIGDRGNRLVLDWFEQSLGAEAKAARWRNEHSQIVADTDVPRFAKLGVIASMQPSHAIGDLFFAPARLGKARLHEGYRWADFLKADVVVAAGSDAPVEVGDPRIEFYAAVYRHSLDGFANADWHLDQAVSRAEALKMLTLAPAYAVFREKELGTLEAGKKADVTAFDRDLMTVEPKAILTAQPVLTVVDGKVVYSR”, the protein production result was “failed”.

Regarding “MRRNTALTRIMASGVAAIMLCAGGTFTVNAAEEEPVKADVSVKAIQGLSDDFIGGMDVSSMLSLEESGVTFKNANGEVEDLFTLLKESGVNYVRLRVWNDPFTADGQGYGGGNVNADRALTMAKRATAAGLKVLVDFHYSDFWADPSKQQVPKAWKSFEGDADKTADTVYDYTKQTLTTFKQAGVDVGMVQVGNETTAKIAGISGWDGMSKVFSAGSKAIREVLPEAKVVIHFTNPEKAGTYATYAKQLSNHNVDYDVFASSYYPFWHGTTENLTSVLKNVASTYKKDVMVAETSWAYTLDDGDDDSNTVPSKVTADNLKKYDISPQGQADEIRAVAEAVNNIGDNDGDGENDGLGVFYWEPAWVPVGTGGKDNAELVDTWNKYGGGWATEAAGEYDPNDAGLYWGGSGVDNQALFDFDGKALASLPTFKYIHTGAVTDHVFTKIDPVEITATDSDSIDAIKAQLPSEVAAHYQDGVDETETVTWQSAALDWIRGAGTYTITGTTNAGHDVTVTVTVTATPAKDYVTDGSFENAENDKNWTIAGTGASITEDSGNAADGKRALKFWASDAYSFSATQTITGLEPGEYVLTAMSQGAAADNAAITDGVALSATTGGKTTSDALELNGWVKFDTATVPVTVGADGTATITITGNLPADAWGNVDKVSLVKKTETPVKPSTENLDKAVAEAGKINRDEYTNESLAKLDQALAAADVLLAGSTYTEQDVNDVIKLVADAIAGLAQKEVSSLTVTPSKTTYQVGDAIDADHDLKVVGNYSAGMGNVTLSADQFTLDYDFSAPADAAKVTVTLKSNPNVTETYTVAVTARAEGGSGNGSDGAGNGGATINPDTGEGDKTNGANGDKITGVLSNTGSAVTAVGLAVVVLGVAGGVSLALRRKRS”, the protein production entry is listed as “failed”.

For the sequence “MRRREGHGTDSEMGQGPVRESQSSDPPALQFRISEYKPLNMAGVEQPPSPELRQEGVTEYEDGGAPAGDGEAGPQQAEDHPQNPPEDPNQDPPEDDSTCQCQACGPHQAAGPDLGSSNDGCPQLFQERSVIVENSSGSTSASELLKPMKKRKRREYQSPSEEESEPEAMEKQEEGKDPEGQPTASTPESEEWSSSQPATGEKKECWSWESYLEEQKAITAPVSLFQDSQAVTHNKNGFKLGMKLEGIDPQHPSMYFILTVAEVCGYRLRLHFDGYSECHDFWVNANSPDIHPAGWFEKTGHKLQPPKGYKEEEFSWSQYLRSTRAQAAPKHLFVSQSHSPPPLGFQVGMKLEAVDRMNPSLVCVASVTDVVDSRFLVHFDNWDDTYDYWCDPSSPYIHPVGWCQKQGKPLTPPQDYPDPDNFCWEKYLEETGASAVPTWAFKVRPPHSFLVNMKLEAVDRRNPALIRVASVEDVEDHRIKIHFDGWSHGYDFWIDADHPDIHPAGWCSKTGHPLQPPLGPREPSSASPGGCPPLSYRSLPHTRTSKYSFHHRKCPTPGCDGSGHVTGKFTAHHCLSGCPLAERNQSRLKAELSDSEASARKKNLSGFSPRKKPRHHGRIGRPPKYRKIPQEDFQTLTPDVVHQSLFMSALSAHPDRSLSVCWEQHCKLLPGVAGISASTVAKWTIDEVFGFVQTLTGCEDQARLFKDEARIVRVTHVSGKTLVWTVAQLGDLVCSDHLQEGKGILETGVHSLLCSLPTHLLAKLSFASDSQY”, the protein production result is “failed”.

Consider “MRRSRRAALAACLILAIAATPGAVLAQTVDELYASAVKARQARHFDEAVDLLRRALALKPDNADALVQLGFAELGRNDLAAARDAFSKALSLAPTYQDASFGLAEIEFRSGNLDAALPLAESVARAQPGNTDAAALVENIRKAMQAAGGEARKASVAAPRAKPRPDPVAGLMEQGRRLRTAGKLPEAEKVYRRALGLAPKNTDILVALGLIVGSSQRFDEAGHFFDRALAIKPGLLDARIGKIRMAIWQGDVPSARALVDDVLASSPDNVEALDLDAKVALLEADYTRAGQSFQRVLAIDPRNAEALVGIGDVRRAQGDDDAARQAYREALAIEPGSSDIEQRLAVPPPRKWRLDLGTEVSDLTNGLSDWTDSSAGLAYRLSPRTTISGRTRVATRFGRTDVQIEGRIDEAFSPAFSAYAFAAATPDADFLARYSIGAGASLQVMAAAKAFGPLSLNIDTRYDNFTNTNVTSVSPWVQGYIFDGRLGLSARWVHAADDIGTRADGYVLRVDLAMAQRFNLFGGYADAPEISDGTLVPTRTVFGGISWDVNDPLTLRASIAHEQRPTFDRSIFGLGLTARF”, for which the protein production result is reported as “failed”.

Regarding “MRRTRRPRFVLMNKMDDLNLHYRFLNWRRRIREIREVRAFRYQERFKHILVDGDTLSYHGNSGEVGCYVASRPLTKDSNYFEVSIVDSGVRGTIAVGLVPQYYSLDHQPGWLPDSVAYHADDGKLYNGRAKGRQFGSKCNSGDRIGCGIEPVSFDVQTAQIFFTKNGKRVGSTIMPMSPDGLFPAVGMHSLGEEVRLHLNAELGREDDSVMMVDSYEDEWGRLHDVRVCGTLLEYLGKGKSIVDVGLAQARHPLSTRSHYFEVEIVDPGEKCYIALGLARKDYPKNRHPGWSRGSVAYHADDGKIFHGSGVGDPFGPRCYKGDIMGCGIMFPRDYILDSEGDSDDSCDTVILSPTARAVRNVRNVMYLHQEGEEEEEEEEEEEDGEEIEPEHEGRKVVVFFTRNGKIIGKKDAVVPSGGFFPTIGMLSCGEKVKVDLHPLSG”, the protein production entry was “not failed”.
